For this assay, the target named is coxsackievirus-adenovirus receptor (CAR) (UniProt P78310). Kind of assay: cell-based or functional assay.
Sequence of UniProt P78310 (P78310 20-365 limits assumed): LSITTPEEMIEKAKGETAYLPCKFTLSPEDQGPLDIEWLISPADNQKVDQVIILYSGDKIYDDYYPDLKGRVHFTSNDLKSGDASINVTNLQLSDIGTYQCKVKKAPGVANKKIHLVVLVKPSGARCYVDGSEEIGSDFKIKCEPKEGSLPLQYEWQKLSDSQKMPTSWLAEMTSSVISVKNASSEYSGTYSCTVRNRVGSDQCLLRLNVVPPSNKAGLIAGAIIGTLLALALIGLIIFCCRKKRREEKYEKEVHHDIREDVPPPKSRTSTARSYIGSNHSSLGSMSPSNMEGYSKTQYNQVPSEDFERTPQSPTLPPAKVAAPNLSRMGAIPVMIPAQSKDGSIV

In the case of “free soluble Ad5 fiber molecules (from UniProt P11818 1-581) (ligand)”, the GFP expression (transduction) of A549 cells by Ad5(GFP) at 500 evg/cell in the presence of soluble Ad5 fiber, relative to absence of soluble fiber (set to 100%) amounted to 20% and the Transduction efficacy of A549 cells by Ad5PTD(GFP) at 500 evg/cell in the presence of soluble Ad5 fiber, relative to absence of soluble fiber (set to 100%) is 80%.

Values taken from patent publication US20130302313A1.
